Target: SAMHD1 (T592A), constitutively active SAM domain and HD domain-containing protein 1 (UniProt Q9Y3Z3)
Assay: cell-based or functional assay

SAMHD1 (T592A), constitutively active SAM domain and HD domain-containing protein 1, sequence (Q9Y3Z3 whole entry T592A, the tested form may be a part): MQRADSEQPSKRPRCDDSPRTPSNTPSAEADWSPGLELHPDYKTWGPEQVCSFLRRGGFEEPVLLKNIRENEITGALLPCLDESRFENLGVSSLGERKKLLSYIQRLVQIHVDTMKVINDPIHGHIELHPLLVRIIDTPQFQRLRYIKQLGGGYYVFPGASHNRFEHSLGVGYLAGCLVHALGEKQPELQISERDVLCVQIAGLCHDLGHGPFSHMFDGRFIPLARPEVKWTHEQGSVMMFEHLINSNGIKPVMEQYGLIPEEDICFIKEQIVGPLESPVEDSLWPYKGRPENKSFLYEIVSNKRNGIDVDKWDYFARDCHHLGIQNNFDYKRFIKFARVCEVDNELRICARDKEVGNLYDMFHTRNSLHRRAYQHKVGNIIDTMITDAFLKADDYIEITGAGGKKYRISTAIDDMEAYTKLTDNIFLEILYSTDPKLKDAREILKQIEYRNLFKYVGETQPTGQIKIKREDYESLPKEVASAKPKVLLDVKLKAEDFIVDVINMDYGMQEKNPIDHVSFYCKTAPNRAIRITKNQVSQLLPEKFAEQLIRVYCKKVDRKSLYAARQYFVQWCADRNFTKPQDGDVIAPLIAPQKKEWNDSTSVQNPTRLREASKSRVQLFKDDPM

Substance | editing efficiency, RW2I, mutation 2-nt from the nick, SAMHD1 (T592A) coexpressed [%] | editing efficiency, mutation 65-nt from the nick, relative to no SAMHD1^p- [%]
VPX^RH2-1 (variant of VPX from HIV-2 clinical isolate RH2-1) (from UniProt P20881 1-112) | 64 | –
VPX^ROD (Vpx from the ROD HIV-2 isolate) (from UniProt P06939 1-112) | – | 78
